Measurements published in patent US12679878B2, “CRF2 receptor agonists and their use in therapy” (SANOFI, priority 2020, dated 2026).
Starred links: 1 amine or outer side, 2 acyl side, 3 side chain; linkers in the order of their positions; H or OH if unused. Non-standard residues stand in square brackets, D forms with d. Residues, ends and D or L forms follow the SMILES beside them. Groups on a side chain read outwards from the residue. No end group written: not given here. *: point of attachment. C20 diacid = O=C(O)CCCCCCCCCCCCCCCCCCC(=O)*; C18 diacid = O=C(O)CCCCCCCCCCCCCCCCC(=O)*; γGlu = O=C(O)[C@H](CCC(=O)[*:2])N[*:1]; Palmitoyl = CCCCCCCCCCCCCCCC(=O)*; AEEA = NCCOCCOCC(=O)O; Aib = CC(C)(N)C(=O)O

What was measured:
[1] = biological target: T1, CRF1R receptor (Homo sapiens, UniProt P34998); experiment: cAMP activity at anti-target CRF1R, CRF1R-overexpression CHO cell line (Example 9); assay type: cell-based; details: CRF1R-overexpression CHO cell line
T1 construct: host or cells: CHO-K1 clone 2
T1 sequence (P34998 24-415): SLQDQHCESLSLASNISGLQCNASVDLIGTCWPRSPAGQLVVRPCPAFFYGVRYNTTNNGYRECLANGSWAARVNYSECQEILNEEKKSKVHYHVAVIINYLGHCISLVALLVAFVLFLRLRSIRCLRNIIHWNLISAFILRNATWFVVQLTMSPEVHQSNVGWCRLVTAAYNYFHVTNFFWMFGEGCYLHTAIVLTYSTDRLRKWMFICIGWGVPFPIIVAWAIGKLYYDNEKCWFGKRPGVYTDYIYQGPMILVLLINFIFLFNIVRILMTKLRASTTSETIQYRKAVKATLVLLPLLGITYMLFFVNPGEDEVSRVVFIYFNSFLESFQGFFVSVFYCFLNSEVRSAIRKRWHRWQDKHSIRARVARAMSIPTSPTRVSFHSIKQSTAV
Procedure: Cells were grown in a T175 culture flask placed at 37° C. to near confluence in medium (DMEM/10% FBS) and collected in 2 ml vials in cell culture medium containing 10% DMSO in a concentration of 10-50 million cells/ml. Each vial contained 1.8 ml cells. The vials were slowly frozen to −80° C. in isopropanol and then transferred in liquid nitrogen for storage. Prior to use, frozen cells were thawed quickly at 37° C. and washed (5 min at 900 rpm) with 20 ml cell buffer (1×HBSS; 20 mM HEPES; 0% or 0.1% HSA). Cells were resuspended in assay buffer (cell buffer plus 2 mM IBMX) and adjusted to a cell density of 1 million cells/ml. For measurement, 5 μl cells (final […]) and 5 μL of test compound were added to a 384-well plate, followed by incubation for 30 minutes at room temperature.
The CAMP content of cells was determined using a kit from Cisbio Corp. (cat. no. 62AM4PEC) based on HTRF (Homogenous Time Resolved Fluorescence). […] The percent activity value (E %) was calculated by setting 1000 nM of urocortin 2 (UCN2) as 100%.
A CRF1R-overexpression CHO cell line was used in this study.

[2] = biological target: T2, anti-target CRF1R receptor (UniProt P34998 24-415, limits assumed); experiment: cell-based or functional assay
T2 sequence (looked up): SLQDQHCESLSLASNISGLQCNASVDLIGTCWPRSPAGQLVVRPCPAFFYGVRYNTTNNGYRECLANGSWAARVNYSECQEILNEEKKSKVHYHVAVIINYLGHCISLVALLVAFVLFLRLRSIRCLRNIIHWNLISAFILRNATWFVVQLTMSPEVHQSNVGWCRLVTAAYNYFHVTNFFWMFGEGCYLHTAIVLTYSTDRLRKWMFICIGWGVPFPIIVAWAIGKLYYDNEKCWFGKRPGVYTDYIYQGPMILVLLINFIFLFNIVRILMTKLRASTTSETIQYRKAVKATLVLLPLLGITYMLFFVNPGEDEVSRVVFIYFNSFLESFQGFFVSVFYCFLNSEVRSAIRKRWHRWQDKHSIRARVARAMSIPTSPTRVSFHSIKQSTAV

With `CCCCCCCCCCCCCCCC(=O)N[C@@H](CCC(=O)NCCCC[C@H](NC(=O)[C@@H](NC(=O)[C@H](CCCCN)NC(=O)[C@@H](NC(=O)[C@@H]1CCCN1C(=O)[C@@H](NC(=O)[C@H](CC(=O)O)NC(=O)[C@H](CC(C)C)NC(=O)[C@H](CO)NC(=O)[C@H](CC(C)C)NC(=O)[C@@H](NC(=O)[C@@H](N)Cc1ccccc1)[C@@H](C)O)C(C)C)[C@@H](C)O)[C@@H](C)CC)C(=O)N[C@@H](CCC(N)=O)C(=O)N[C@@H](CCCCN)C(=O)N[C@@H](CC(C)C)C(=O)N[C@@H](CC(C)C)C(=O)N[C@@H](CCCCN)C(=O)N[C@@H](CCC(N)=O)C(=O)N[C@@H](CCC(=O)O)C(=O)N[C@@H](CCCCN)C(=O)N[C@@H](CCC(N)=O)C(=O)N[C@@H](CCCCN)C(=O)N[C@@H](CCCCN)C(=O)N[C@@H](CCC(N)=O)C(=O)N[C@@H](CCCNC(=N)N)C(=O)N[C@@H](CCC(N)=O)C(=O)N[C@@H](CCCCN)C(=O)N[C@@H](C)C(=O)N[C@@H](CCCCN)C(=O)N[C@H](C(=O)N[C@@H](C)C(=O)N[C@@H](CCCCN)C(=O)N[C@@H](CCC(N)=O)C(=O)N[C@H](C(=O)N[C@@H](CC(C)C)C(=O)N[C@@H](CCC(=O)O)C(=O)N[C@@H](CCC(N)=O)C(=O)N[C@H](C(N)=O)C(C)C)[C@@H](C)CC)[C@@H](C)O)C(=O)O` [compound 9] (H-FTLSLDVPTKIK([γGlu-Palmitoyl])QKLLKQEKQKKQRQKAKTAKQILEQV-NH2) the EC50 ([1]; 0% HSA) was over 1000 nM and the Emax ([1]; read-out: Emax (%)) was 14.9%.

B1: peptide of SEQ ID NO: 160 (peptide)
peptide: Ac-IVLSLD[dV]PIKLK([AEEA-AEEA-γGlu-C18 diacid])QILLEQERQE[Aib]EREQAETNKQILEQV-NH2
SMILES: CC[C@H](C)[C@H](NC(C)=O)C(=O)N[C@H](C(=O)N[C@@H](CC(C)C)C(=O)N[C@@H](CO)C(=O)N[C@@H](CC(C)C)C(=O)N[C@@H](CC(=O)O)C(=O)N[C@@H](C(=O)N1CCC[C@H]1C(=O)N[C@H](C(=O)N[C@@H](CCCCN)C(=O)N[C@@H](CC(C)C)C(=O)N[C@@H](CCCCNC(=O)COCCOCCNC(=O)COCCOCCNC(=O)CC[C@H](NC(=O)CCCCCCCCCCCCCCCCC(=O)O)C(=O)O)C(=O)N[C@@H](CCC(N)=O)C(=O)N[C@H](C(=O)N[C@@H](CC(C)C)C(=O)N[C@@H](CC(C)C)C(=O)N[C@@H](CCC(=O)O)C(=O)N[C@@H](CCC(N)=O)C(=O)N[C@@H](CCC(=O)O)C(=O)N[C@@H](CCCNC(=N)N)C(=O)N[C@@H](CCC(N)=O)C(=O)N[C@@H](CCC(=O)O)C(=O)NC(C)(C)C(=O)N[C@@H](CCC(=O)O)C(=O)N[C@@H](CCCNC(=N)N)C(=O)N[C@@H](CCC(=O)O)C(=O)N[C@@H](CCC(N)=O)C(=O)N[C@@H](C)C(=O)N[C@@H](CCC(=O)O)C(=O)N[C@H](C(=O)N[C@@H](CC(N)=O)C(=O)N[C@@H](CCCCN)C(=O)N[C@@H](CCC(N)=O)C(=O)N[C@H](C(=O)N[C@@H](CC(C)C)C(=O)N[C@@H](CCC(=O)O)C(=O)N[C@@H](CCC(N)=O)C(=O)N[C@H](C(N)=O)C(C)C)[C@@H](C)CC)[C@@H](C)O)[C@@H](C)CC)[C@@H](C)CC)C(C)C)C(C)C
With B1 the “EC50[nM] 0% HSA (cAMP, CRF1R-overexpression CHO cells)” value (“EC50[nM] 0% HSA” below) [2] was over 1000 nM and the “Emax (%) (cAMP, CRF1R-overexpression CHO cells)” value (“Emax (%)” for short) [2] was 20.8%.

B2: peptide of SEQ ID NO: 172 (peptide)
peptide: IVLSLD[dV]PIKLK([AEEA-AEEA-γGlu-γGlu-C20 diacid])QILLKQERQK[Aib]QREQAEKNKQILAQV-NH2
modifications: N-terminus assumed
SMILES: CC[C@H](C)[C@H](N)C(=O)N[C@H](C(=O)N[C@@H](CC(C)C)C(=O)N[C@@H](CO)C(=O)N[C@@H](CC(C)C)C(=O)N[C@@H](CC(=O)O)C(=O)N[C@@H](C(=O)N1CCC[C@H]1C(=O)N[C@H](C(=O)N[C@@H](CCCCN)C(=O)N[C@@H](CC(C)C)C(=O)N[C@@H](CCCCNC(=O)COCCOCCNC(=O)COCCOCCNC(=O)CC[C@H](NC(=O)CC[C@H](NC(=O)CCCCCCCCCCCCCCCCCCC(=O)O)C(=O)O)C(=O)O)C(=O)N[C@@H](CCC(N)=O)C(=O)N[C@H](C(=O)N[C@@H](CC(C)C)C(=O)N[C@@H](CC(C)C)C(=O)N[C@@H](CCCCN)C(=O)N[C@@H](CCC(N)=O)C(=O)N[C@@H](CCC(=O)O)C(=O)N[C@@H](CCCNC(=N)N)C(=O)N[C@@H](CCC(N)=O)C(=O)N[C@@H](CCCCN)C(=O)NC(C)(C)C(=O)N[C@@H](CCC(N)=O)C(=O)N[C@@H](CCCNC(=N)N)C(=O)N[C@@H](CCC(=O)O)C(=O)N[C@@H](CCC(N)=O)C(=O)N[C@@H](C)C(=O)N[C@@H](CCC(=O)O)C(=O)N[C@@H](CCCCN)C(=O)N[C@@H](CC(N)=O)C(=O)N[C@@H](CCCCN)C(=O)N[C@@H](CCC(N)=O)C(=O)N[C@H](C(=O)N[C@@H](CC(C)C)C(=O)N[C@@H](C)C(=O)N[C@@H](CCC(N)=O)C(=O)N[C@H](C(N)=O)C(C)C)[C@@H](C)CC)[C@@H](C)CC)[C@@H](C)CC)C(C)C)C(C)C
In the case of B2, the “EC50[nM] 0% HSA” value [2] is reported as over 1000 nM and the “Emax (%)” value [2] is reported as 25.6%.

B3: peptide of SEQ ID NO: 171 (peptide)
peptide: IVLSLD[dV]PIKLK([AEEA-AEEA-γGlu-γGlu-C18 diacid])QILLKQERQK[Aib]QREQAEKNKQILAQV-NH2
modifications: N-terminus assumed
SMILES: CC[C@H](C)[C@H](N)C(=O)N[C@H](C(=O)N[C@@H](CC(C)C)C(=O)N[C@@H](CO)C(=O)N[C@@H](CC(C)C)C(=O)N[C@@H](CC(=O)O)C(=O)N[C@@H](C(=O)N1CCC[C@H]1C(=O)N[C@H](C(=O)N[C@@H](CCCCN)C(=O)N[C@@H](CC(C)C)C(=O)N[C@@H](CCCCNC(=O)COCCOCCNC(=O)COCCOCCNC(=O)CC[C@H](NC(=O)CC[C@H](NC(=O)CCCCCCCCCCCCCCCCC(=O)O)C(=O)O)C(=O)O)C(=O)N[C@@H](CCC(N)=O)C(=O)N[C@H](C(=O)N[C@@H](CC(C)C)C(=O)N[C@@H](CC(C)C)C(=O)N[C@@H](CCCCN)C(=O)N[C@@H](CCC(N)=O)C(=O)N[C@@H](CCC(=O)O)C(=O)N[C@@H](CCCNC(=N)N)C(=O)N[C@@H](CCC(N)=O)C(=O)N[C@@H](CCCCN)C(=O)NC(C)(C)C(=O)N[C@@H](CCC(N)=O)C(=O)N[C@@H](CCCNC(=N)N)C(=O)N[C@@H](CCC(=O)O)C(=O)N[C@@H](CCC(N)=O)C(=O)N[C@@H](C)C(=O)N[C@@H](CCC(=O)O)C(=O)N[C@@H](CCCCN)C(=O)N[C@@H](CC(N)=O)C(=O)N[C@@H](CCCCN)C(=O)N[C@@H](CCC(N)=O)C(=O)N[C@H](C(=O)N[C@@H](CC(C)C)C(=O)N[C@@H](C)C(=O)N[C@@H](CCC(N)=O)C(=O)N[C@H](C(N)=O)C(C)C)[C@@H](C)CC)[C@@H](C)CC)[C@@H](C)CC)C(C)C)C(C)C
In the case of B3, the “EC50[nM] 0% HSA” value [2] is reported as over 1000 nM and the “Emax (%)” value [2] is reported as 7.54%.

B4: peptide of SEQ ID NO: 161 (peptide)
peptide: Ac-IVLSLD[dV]PIKLK([AEEA-AEEA-γGlu-C18 diacid])QILLEQERQE[Aib]EREQAEKNEQILEQV-NH2
SMILES: CC[C@H](C)[C@H](NC(C)=O)C(=O)N[C@H](C(=O)N[C@@H](CC(C)C)C(=O)N[C@@H](CO)C(=O)N[C@@H](CC(C)C)C(=O)N[C@@H](CC(=O)O)C(=O)N[C@@H](C(=O)N1CCC[C@H]1C(=O)N[C@H](C(=O)N[C@@H](CCCCN)C(=O)N[C@@H](CC(C)C)C(=O)N[C@@H](CCCCNC(=O)COCCOCCNC(=O)COCCOCCNC(=O)CC[C@H](NC(=O)CCCCCCCCCCCCCCCCC(=O)O)C(=O)O)C(=O)N[C@@H](CCC(N)=O)C(=O)N[C@H](C(=O)N[C@@H](CC(C)C)C(=O)N[C@@H](CC(C)C)C(=O)N[C@@H](CCC(=O)O)C(=O)N[C@@H](CCC(N)=O)C(=O)N[C@@H](CCC(=O)O)C(=O)N[C@@H](CCCNC(=N)N)C(=O)N[C@@H](CCC(N)=O)C(=O)N[C@@H](CCC(=O)O)C(=O)NC(C)(C)C(=O)N[C@@H](CCC(=O)O)C(=O)N[C@@H](CCCNC(=N)N)C(=O)N[C@@H](CCC(=O)O)C(=O)N[C@@H](CCC(N)=O)C(=O)N[C@@H](C)C(=O)N[C@@H](CCC(=O)O)C(=O)N[C@@H](CCCCN)C(=O)N[C@@H](CC(N)=O)C(=O)N[C@@H](CCC(=O)O)C(=O)N[C@@H](CCC(N)=O)C(=O)N[C@H](C(=O)N[C@@H](CC(C)C)C(=O)N[C@@H](CCC(=O)O)C(=O)N[C@@H](CCC(N)=O)C(=O)N[C@H](C(N)=O)C(C)C)[C@@H](C)CC)[C@@H](C)CC)[C@@H](C)CC)C(C)C)C(C)C
For B4, the “EC50[nM] 0% HSA” value [2] was over 1000 nM and the “Emax (%)” value [2] was 3.42%.
